Experiment: soluble on expression in E. coli; label from the status in PepcDB or PDB records

Sequence	soluble on expression in E. coli
MSLSDTEKKIADTKGQFLQAVSQGQRLTDAEWRNCRIVLTTERVALLGDDKRQISLTDIDRIADRFDVNQQSAGVSDYVALYVGEDVILVSASDHGTFETDFYRASLDGAIVLVQHPALKGGVVQSAEWTKGRLKVTDEALKLAMADGQAVVIDRADIGDLAVEEKQVSGEERTVIQVEHSEEDISVETHLAGEEFHATVLRTMLEESAEQNQADLDLSSTEKRVIMALHSGVSPFDIPNFVGIDVEKTEEIFDRLIELDVISVLRERTEVNLTTKGRRVAGERMGEQEGHHHHHH	not soluble
MGSDKIHHHHHHMKNLIFKDSQFEFQTLRVLGSSASGAADIGEVVETAQRIKEGDFKSWCDEWSKTAKSLEESAEESYSKGHFISAKKAYLRAANYYRTAEFYLHENPNNPIIGELYEKSLRCFSYVMKLNKPAIEAVKIPYENTFLPAHYYKLQNSNGKAPVLIAMTGYDGTKEEFYGLAMTALEHGMNFLTFEGPGQGEAVRKQKLFFRYDYEKVVTPVIDYVISRKEVDQAKIILWGESLGGYLAPRAAAFEHRLAACVANSGVYDFFGGILRELGNNSREEFFSAARINPEEFDKNIYSIAKLNSKVRWGIYHGMYVFGVNSPHEYILKAEDFYLKDIAEKIKCPTLVIDSDNDGILGGQSKPLYDVLRCKKEYMFFTSENGAGYHCQVGAKLIGWERILSWIEDIIK	not soluble
MARRNSSIKPVFCFFAEFCMVSTSLWMDTEILPEASALKGDVHCDVAVVGSGIAGLSTAYELSKRDQSVIVIDRKGIASGMTARTSAHLAPLCDDLMSEFRKLRGPEIAKLFYESQAAAVDRIEEIQASETIACDFRRLDGYLFQGHGMPADVLDEELEAVREVGAPVHRLVGVPLKGCENRHVLRYPRQATFHPLKYLAGVAAVCQTHGVRFFANSPVEEVAQGDGDVTLRTAQGQITAGNAVIATNASITDRYQLHSKVAPYRTYVLAFAIARGELPDALYWDTEDPYHYVRLQLGSDDHDVVLIGGEDHKSGEANDAEKRFAKLESWARELIPGLGRVTHRWSGQVLDTIDYAGFIGREPGSERIYLAMGDSGQGLTHGVMGAMLNTSLILGEHNPWSAVYAPGRTPLAAARNFLRENLTILQNLAEYVAPGEIASLEKIEPSEGAILRRGFEKIAAYRDKAGELHLHSASCTHIGCHLHWNSFETCWDCPCHGSIFAPNGQPINAPAVSALRPVKVLEHHHHHH	not soluble
MGSDKIHHHHHHMDKYLSANSLEGVIDNEFSMPAPRWLNTYPAGPYRFINREFFIIAYETDPDLLQAILPPDMELLEPVVKFEFIRMPDSTGFGDYTESGQVVPVRYKGEEGGFTISMFLDCHAPIAGGREIWGFPKKLAKPKLFVEEDTLIGILKYGSIDIAIATMGYKHRPLDAEKVLESVKKPVFLLKNIPNVDGTPLVNQLTKTYLTDITVKGAWTGPGSLELHPHALAPISNLYIKKIVSVSHFITDLTLPYGKVVADYLA	not soluble
GPLGSATITQDTPINQIFTDTALAEKMKTVLGKTNVTDTVSQTDLDQVTTLQADRLGIKSIDGVEYLNNLTQINFSNNQLTDITPLKNLTKLVDILMNNNQIADITPLANLTNLTGLTLFNNQITDIDPLKNLTNLNRLELSSNTISDISALSGLTSLQQLSFGNQVTDLKPLANLTTLERLDISSNKVSDISVLAKLTNLESLIATNNQISDITPLGILTNLDELSLNGNQLKDIGTLASLTNLTDLDLANNQISNLAPLSGLTKLTELKLGANQISNISPLAGLTALTNLELNENQLEDISPISNLKNLTYLTLYFNNISDISPVSSLTKLQRLFFYNNKVSDVSSLANLTNINWLSAGHNQISDLTPLANLTRITQLGLNDQAWTNAPVNYKANVSIPNTVKNVTGALIAPATISDGGSYTEPDITWNLPSYTNEVSYTFSQPVTIGKGTTTFSGTVTQPLKA	soluble
MEGSSSTIARKTWELENSILTVDSPDSTSDNIFYYDDTSQTRFQQEKPWENDPHYFKRVKISALALLKMVVHARSGGTIEIMGLMQGKTDGDTIIVMDAFALPVEGTETRVNAQDDAYEYMVEYSQTNKLAGRLENVVGWYHSHPGYGCWLSGIDVSTQRLNQQHQEPFLAVVIDPTRTVSAGKVEIGAFRTYSKGYKPPDEPVSEYQTIPLNKIEDFGVHCKQYYSLDVTYFKSSLDSHLLDLLWNKYWVNTLSSSPLLGNGDYVAGQISDLAEKLEQAESHLVQSRFGGVVPSSLHKKKEDESQLTKITRDSAKITVEQVHGLMSQVIKDELFNSMRQSNNKSPTDSSDPDPMITY	soluble
MPKKPLIDQLHHEDSWRLFRILAEFVEGFETLSELQVPLVSVFGSARFGEGHPAYEAGYRLGRALAEAGFGVVTGGGPGVMEAVNRGAYEAGGVSVGLNIELPHEQKPNPYQTHALSLRYFFVRKVLFVRYAVGFVFLPGGFGTLDELSEVLVLLQTEKVHRFPVFLLDRGYWEGLVRWLAFLRDQKAVGPEDLQLFRLTDEPEEVVQALKAEAPPR	soluble
PSQVFKPLVSLFSPIEPSVYEARGRLPREQLGETRLDYDRTFQLASVEAARLGIAEPIGELYYSFEYNFFGAGFGDHDDPMGKSWLFFHGSDGRLLGQEVAGQGSWGERFYRLQYPIHGGRIAGLPGR	not soluble
MGSDKIHHHHHHMTSADPPTLPETSVDVPPTSAEGLLKLITNEYDGLPRQLKRIASYMSQQSDRIMVDRISDIARECEVHPSAIVRFSQRFGFSGFSEMQTLFREAYTHKTTPVQNYQQRIRSMIVNKSQKASAGDLARECVNATLSGLERLSADLDDEEFEKAVDLVVNADNIYVVGVRRSFAVADYLVYNLQHTNKRIHLISGLGGSYREQMRSVRANDLVIAISFTPYGKETQHCLRIAQHHQAKTLIITDSNLSPLAKRANSVLLVNEGSSFAFRSLSATLCLCQALFIAVAYRLELKVDEIHEQVGFDD	not soluble
MIILQANKIERSFAGEVLFDNINLQVDERDRIALVGKNGAGKSTLLKILVGEEEPTSGEINKKKDISLSYLAQDSRFESENTIYDEMLHVFNDLRRTERQLRQMELEMGEKSGEDLDKLMSDYDRLSENFRQAGGFTYEADIRAILNGFKFDESMWQMKIAELSGGQNTRLALAKMLLEKPNLLVLDEPTNHLDIETIAWLENYLVNYSGALIIVSHDRYFLDKVATITLDLTKHSLDRYVGNYSRFVELKEQKLVTEAKNYEKQQKEIAALEDFVNRNLVRASTTKRAQSRRKQLEKMERLDKPEAGKKSANMTFQSEKTSGNVVLTVENAAVGYDGEVLSQPINLDLRKMNAVAIVGPNGIGKSTFIKSIVDQIPFIKGEKRFGANVEVGYYDQTQSKLTPSNTVLDELWNDFKLTPEVEIRNRLGAFLFSGDDVKKSVGMLSGGEKARLLLAKLSMENNNFLILDEPTNHLDIDSKEVLENALIDFDGTLLFVSHDRYFINRVATHVLELSENGSTLYLGDYDYYVEKKATAEMSQTEEASTSNQAKEASPVNDYQAQKESQKEVRKLMRQIESLEAEIEELESQSQAISEQMLETNDADKLMELQAELDKISHRQEEAMLEWEELSEQV	not soluble
MKISPSRQVKGEIEIIPVSGFRGIGKFIDVPWRLYADDPLWVPPLRLERRLHLSRFNPYFRHAQWQGWIACRDNQPVGRISAQIDELYQQRYGTDTGHFGMLESIQDEAVFSRLIQVAESWLVERGVRQISGPFNFSINQECGLLVQGFDTPPVFMMPYSPEWYTSLLEQNGYQPCKDLLAYWLVTDFDPPPAMQAIDRKYRHQIRIRPLQRNRFNEEIETMRDIFNDAWSDNWGFVPFTQEEFAELGSSLRWLVPDEFIQIAEIDGRPVAFMAVLPNLNEVLPALNGKLLPLGWLHLINKLKSASITTGRVPLMGVRKQFHHTLVGIALAFKVIDAPRKMVKSRGIGHVELSWILEDNQSMRAILEKIGGREYKRYRIYDKTLA	not soluble
MGSDKIHHHHHHMLDDIKKTLWAAADKLRANVDAAEYKHLVLGLIFLKFVSDTFAARRAELERRFVDVNDDYFLHDADADFIAEELEERDYYIEVNVFWVPEPARWEGLRANAKQANIGKQIDDALDAIEKENPSLKGILDKRYARAPLPDGKLGELVDLISTIGFGEDQSKARDILGQVYEYFLGQFASAEGKKGGQFYTPQSIVNTLVAVLDPHQGKVYDPCCGSGGMFVQSEKFIEAHGGKLGDVSIYGQESNPTTWRLAAMNLAIRGIDFNLGREPGDTFTKNQHSDLRADYILANPPFNISDWWHGSLEGDPRWVYGNPPQGNANYAWLQHMLYHLKPTGRAGIVLANGSMSSSQNTEGDIRRAMVDADVVEVMVALPGQLFFNTQIPACLWFLTKQKTARKGEVLFIDARKLGKMISRVQSELDQAAIDRIANTAKAWRGEDMTGVEGFEDGYQDIPGFCRSVPLSEIAEHGHVLTPGRYVGAEEVEDCDDAFADKMTMLTEKLAEQMAKGAELDQLIRQKLGGLGYEF	not soluble
MLSKISESLANLSGAERKVAECALAEPKWFVHAAVAEIAERASVSQPTVIRFCRSLGYKGLPEFKLALSASIGHEGMPYVHEELNADDDMASVVEKVLGNAAASLLGERRFLKESELENAIATLMHARRVEFYGVGNSGIVAQDAQHKFFRFGMSTVAYVDTHTQLMAASVLSDQDVLVAISNTGSSIELLDAVSIAKENGASVIALTRNDSPLAQLADCVLSVATQENAELYTPMVSRLLQLAVIDILAIGLALRLGDAASLQLQKSKKSIHNKHIDYDKD	soluble
